Consider four molecules from patent US20200277405A1, “COMPOSITION FOR ANTIBODY-DRUG CONJUGATE DIRECTED AGAINST TUMOR-CELL ASSOCIATED POLYSIALIC ACID” (Cornell University, priority 2019, published 2020).

Entries after “also recorded” stand apart in the source; their conditions may differ.

As usually defined, the EC50 is the midpoint of the concentration-response curve. For orientation: EC50 (read off the curve) means the midpoint of the concentration-response curve. A higher EC50 (read off the curve) goes with weaker potency. As a reminder, the Kd is the equilibrium constant for the complex coming apart. The low end stands for higher affinity, the high end for lower affinity.

Assay [1] concerns SW2 (polySia positive externally) cells. The experiment in a line: Internalization of scFv735, SW2. Format: cell-based, human. The text has this: (§1) FIG. 15 depicts cellular internalization of a polySia-specific single-chain Fv (scFv735) constructed by genetically fusing together the DNA encoding the variable heavy (VH) and variable light (VL) genes derived from mo735 with a flexible GlySer linker.
(§2) A polySia-specific single-chain […] (scFV735) was constructed by genetically fusing together the DNA encoding the variable heavy (VH) and variable light (VL) genes derived from mo735 with a flexible GlySer linker. Alexa Fluor 488 labeled scFv735 was incubated with SW2 (polySia positive externally) and MCF7 (polySia negative externally) cells for 2 hours at different concentrations ranging from 0-1,000 nM at either 4° C. or 37° C. (internalization). After incubation, the cells were washed and extracellular fluorescence was quenched with 0.2% Trypan Blue. Intracellular Fluoresence (geometric mean fluorescence intensity, MFI) indicative of internalized scFv735 was measured by flow cytometery.

For assay [2], the system named is MCF7 (polySia negative externally) cells. Put plainly: Internalization of scFv735, MCF7. Format: cell-based, human. To be noted: MCF7, 2 hours, 0-1,000 nM.
Source text: as §1, §2

The conditions of assay [3]: Nagae et al.; cited from earlier work.
The target in a further assay is NCAM (Homo sapiens, UniProt P13591). To be noted: Target NCAM; literature; cited from earlier work.
Assay [4] concerns the target chicken brain-derived polysialylated neural cell adhesion molecule (NCAM) (chicken) (UniProt P13590). The experiment in a line: ELISA, chicken brain NCAM coated on the plate, ch735 titrated, anti-human IgG secondary, Abs370.
Assay [5] has the same target. Put plainly: ELISA, NCAM coated on the plate, ch735 titrated (x axis 'ch735 [ng/mL]'), HRP secondary, Abs450.
The target is the same in assay [6]. Put plainly: SPR (Biacore 3000), antibody captured on Protein A chip, NCAM 0.25-250 nM in solution, equilibrium fit with Hill slope. For orientation: Surface plasmon resonance follows binding to a sensor surface in real time, without labels.
Assay [7] has the same target. The experiment in a line: ELISA, chicken brain NCAM coated on the plate, mo735 titrated, anti-mouse IgG secondary, Abs370. A general note: In an ELISA, binding on a coated surface is turned into a signal by an enzyme label.

B1: scFv735: polySia-specific single-chain Fv fusing VH and VL of mo735 with a flexible GlySer linker (protein)
scFv: DVVMTQTPLSLPVSLGDQASISCRSSQSLVHSNGNTYLYWYLQKPGQSPKPLIYRVSNRFSGVPDRFSGSGSGTDFTLKISRVEAEDLGVYFCFQGTHVPYTFGGGTRLEIKGGGGSGGGGSGGGGSQIQLQQSGPELVRPGASVKISCKASGYTFTDYYIHWVKQRPGEGLEWIGWIYPGSGNTKYNEKFKGKATLTVDTSSSTAYMQLSSLTSEDSAVYFCARGGKFAMDYWGQGTSVTVSS
B1: the “internalization (intracellular fluorescence)” value in assay [1] (SW2, 2 hours, 0-1,000 nM, 37° C.) is reported as “observed to internalize; also recorded: increase with increasing concentration”; in assay [1] (temperature reduced to 4° C.), “blocked”; in assay [2] it was “not”. Also, in assay [3], the “degree of polymerization (DP) of shorter sialic acids bound” value is recorded as about 3.

B2: Lorvotuzumab DM1: CD56-targeting antibody-drug conjugate, literature (conjugate, chains of the INN, looked up)
VH: QVQLVESGGGVVQPGRSLRLSCAASGFTFSSFGMHWVRQAPGKGLEWVAYISSGSFTIYYADSVKGRFTISRDNSKNTLYLQMNSLRAEDTAVYYCARMRKGYAMDYWGQGTLVTVSS
VL: DVVMTQSPLSLPVTLGQPASISCRSSQIIIHSDGNTYLEWFQQRPGQSPRRLIYKVSNRFSGVPDRFSGSGSGTDFTLKISRVEAEDVGVYYCFQGSHVPHTFGQGTKVEIK
modifications: DM1 mertansine payload
notes: CD56-targeting antibody-drug conjugate, literature
As for B2, the EC50 in the assay with NCAM is 0.2 to 5 nM.

B3: chimeric human IgG1 mAb ch735 (antibody, V domains shown)
VH: QIQLQQSGPELVRPGASVKISCKASGYTFTDYYIHWVKQRPGEGLEWIGWIYPGSGNTKYNEKFKGKATLTVDTSSSTAYMQLSSLTSEDSAVYFCARGGKFAMDYWGQGTSVTVSS
VL: DVVMTQTPLSLPVSLGDQASISCRSSQSLVHSNGNTYLYWYLQKPGQSPKPLIYRVSNRFSGVPDRFSGSGSGTDFTLKISRVEAEDLGVYFCFQGTHVPYTFGGGTRLEIK
On to B3, for which the EC50 (read off the curve) in assay [4] and in assay [5] was 10 ng/mL each time. The Kd in assay [6] was determined as 4.79 nM.

B4: mouse IgG2a mAb 735 (mo735) (antibody, V domains shown)
VH: QIQLQQSGPELVRPGASVKISCKASGYTFTDYYIHWVKQRPGEGLEWIGWIYPGSGNTKYNEKFKGKATLTVDTSSSTAYMQLSSLTSEDSAVYFCARGGKFAMDYWGQGTSVTVSS
VL: DVVMTQTPLSLPVSLGDQASISCRSSQSLVHSNGNTYLYWYLQKPGQSPKPLIYRVSNRFSGVPDRFSGSGSGTDFTLKISRVEAEDLGVYFCFQGTHVPYTFGGGTRLEIK
B4 gave a half-maximal effective concentration (EC50 (read off the curve)) in assay [7] of 10 ng/mL. In assay [6], this molecule came in with a Kd of 10.2 nM.
